Substrate in data set [1]: O=C(Cc1ccccc1)Nc1ccc([N+](=O)[O-])c(C(=O)O)c1
The data set can be described thus: purified protein. Type of data set: biochemical, Escherichia coli. Particulars: 50 mM phosphate buffer, pH 8, 37 °C, substrate 7-2000 μM.

Substrate in data set [2]: CC1(C)S[C@@H]2[C@H](NC(=O)Cc3ccccc3)C(=O)N2[C@H]1C(=O)O
As to the kind of experiment: purified protein. Particulars: 37 °C, substrate 5-100 μM. Type of data set: biochemical, Escherichia coli.

The results in this text go back to article PMC2845550, “Heterologous expression of leader-less pga gene in Pichia pastoris: intracellular production of prokaryotic enzyme” (BMC Biotechnology, 2010).

B1: PGAEc (Escherichia coli) (protein)
chain 1: EQSSSEIKIVRDEYGMPHIYANDTWHLFYGYGYVVAQDRLFQMEMARRSTQGTVAEVLGKDFVKFDKDIRRNYWPDAIRAQIAALSPEDMSILQGYADGMNAWIDKVNTNPETLLPKQFNTFGFTPKRWEPFDVAMIFVGTMANRFSDSTSEIDNLALLTALKDKYGVSQGMAVFNQLKWLVNPSAPTTIAVQESNYPLKFNQQNSQTA
chain 2: SNMWVIGKSKAQDAKAIMVNGPQFGWYAPAYTYGIGLHGAGYDVTGNTPFAYPGLVFGHNGVISWGSTAGFGDDVDIFAERLSAEKPGYYLHNGKWVKMLSREETITVKNGQAETFTVWRTVHGNILQTDQTTQTAYAKSRAWDGKEVASLLAWTHQMKAKNWQEWTQQAAKQALTINWYYADVNGNIGYVHTGAYPDRQSGHDPRLPVPGTGKWDWKGLLPFEMNPKVYNPQSGYIANWNNSPQKDYPASDLFAFLWGGADRVTEIDRLLEQKPRLTADQAWDVIRQTSRQDLNLRLFLPTLQAATSGLTQSDPRRQLVETLTRWDGINLLNDDGKTWQQPGSAILNVWLTSMLKRTVVAAVPMPFDKWYSASGYETTQDGPTGSLNISVGAKILYEAVQGDKSPIPQAVDLFAGKPQQEVVLAALEDTWETLSKRYGNNVSNWKTPAMALTFRANNFFGVPQAAAEETRHQAEYQNRGTENDMIVFSPTTSDRPVLAWDVVAPGQSGFIAPDGTVDKHYEDQLKMYENFGRKSLWLTKQDVEAHKESQEVLHVQR
notes: mature periplasmic heterodimer cut from 846-residue preproprotein; homologous expression in E. coli RE3(pKA18), untagged
For orientation: Km means the substrate concentration at which the rate is half of its maximum. The term Vmax denotes the rate approached at saturating substrate. The term kcat denotes the number of substrate molecules converted per active site and unit of time at saturation. Take B1: in data set [1], the Km amounted to 28 µM, the Vmax amounted to 15000 µM/min and the kcat was found to be 1.6 s⁻¹. In data set [2], the Km was found to be 34 µM and the catalytic constant (kcat) came out at 13.6 s⁻¹.
